US10494423B2, “Maytansinoid derivatives with peptide linker and conjugates thereof” (priority 2011, dated 2019)

Molecular target: T1, cathepsin B (Bos taurus, UniProt P07688)
T1 construct: cathepsin B (bovine spleen; EMD Biosciences); purchased EMD Biosciences; host or cells: bovine spleen (tissue-derived enzyme)
Test: In vitro cleavage of conjugate by cathepsin B
Type: biochemical, bovine
Conditions: 4.6 μM conjugate, 0.9 μM cathepsin B, pH 6.0, 37° C., 0-26 h
Description: huC242-3b conjugate (4.6 μM) was incubated with 0.9 μM cathepsin B (bovine spleen; EMD Biosciences) in pH 6.0 buffer containing 0.6 mM CaCl2/MgCl2 and 2 mM DTT (dithiothreitol) at 37° C. 100 μl aliquots were taken at various time points (0, 1, 3, 8, 17, and 26 h) and free maytansinoids were quantified using a mixed-mode chromatography method (Fleming, et al, Analytical Biochemistry, 2005, 340, 272). Briefly, a HISEP shielded hydrophobic phase column (5 μm particle size, 4.6×250 mm length, Supelco, Bellefonte, Pa., USA) was used for analyzing Ab-DM1 conjugates. Detection was at 252 and 280 nm (extracted from PDA spectra). The flow rate was 0.7 ml/min. Mobile phase A consisted of 100 mM ammonium acetate (pH 7.0). Mobile phase B was 100% acetonitrile. The column was equilibrated at 25% B followed by a linear gradient over 25 min to 40% B after sample injection. […] Synthesized compound 5 had the same retention time and mass spectrum as this metabolite.

B1: huC242-3b: huC242 antibody conjugated via SMCC linker to compound 2; 3.3 maytansinoids per antibody (conjugate, chains of the INN, looked up)
VH: QVQLVQSGAEVKKPGETVKISCKASDYTFTYYGMNWVKQAPGQGLKWMGWIDTTTGEPTYAQKFQGRIAFSLETSASTAYLQIKSLKSEDTATYFCARRGPYNWYFDVWGQGTTVTVSS
VL: DIVMTQSPLSVPVTPGEPVSISCRSSKSLLHSNGNTYLYWFLQRPGQSPQLLIYRMSNLVSGVPDRFSGSGSGTAFTLRISRVEAEDVGVYYCLQHLEYPFTFGPGTKLELK
modifications: SMCC-linked maytansinoid compound 2, DAR 3.3
notes: huC242 antibody conjugated via SMCC linker to compound 2; 3.3 maytansinoids per antibody
For B1, the “released metabolite on cathepsin B cleavage” value was “sole released metabolite 5 was detected”.
